B1: Histone-lysine N-methyltransferase SMYD1 (Homo sapiens), Q8NB12 (parent)
chain: MTIGRMENVEVFTAEGKGRGLKATKEFWAADIIFAERAYSAVVFDSLVNFVCHTCFKRQEKLHRCGQCKFAHYCDRTCQKDAWLNHKNECSAIKRYGKVPNENIRLAARIMWRVEREGTGLTEGCLVSVDDLQNHVEHFGEEEQKDLRVDVDTFLQYWPPQSQQFSMQYISHIFGVINCNGFTLSDQRGLQAVGVGIFPNLGLVNHDCWPNCTVIFNNGNHEAVKSMFHTQMRIELRALGKISEGEELTVSYIDFLNVSEERKRQLKKQYYFDCTCEHCQKKLKDDLFLGVKDNPKPSQEVVKEMIQFSKDTLEKIDKARSEGLYHEVVKLCRECLEKQEPVFADTNIYMLRMLSIVSEVLSYLQAFEEASFYARRMVDGYMKLYHPNNAQLGMAVMRAGLTNWHAGNIEVGHGMICKAYAILLVTHGPSHPITKDLEAMRVQTEMELRMFRQNEFMYYKMREAALNNQPMQVMAEPSNEPSPALFHKKQ
partner: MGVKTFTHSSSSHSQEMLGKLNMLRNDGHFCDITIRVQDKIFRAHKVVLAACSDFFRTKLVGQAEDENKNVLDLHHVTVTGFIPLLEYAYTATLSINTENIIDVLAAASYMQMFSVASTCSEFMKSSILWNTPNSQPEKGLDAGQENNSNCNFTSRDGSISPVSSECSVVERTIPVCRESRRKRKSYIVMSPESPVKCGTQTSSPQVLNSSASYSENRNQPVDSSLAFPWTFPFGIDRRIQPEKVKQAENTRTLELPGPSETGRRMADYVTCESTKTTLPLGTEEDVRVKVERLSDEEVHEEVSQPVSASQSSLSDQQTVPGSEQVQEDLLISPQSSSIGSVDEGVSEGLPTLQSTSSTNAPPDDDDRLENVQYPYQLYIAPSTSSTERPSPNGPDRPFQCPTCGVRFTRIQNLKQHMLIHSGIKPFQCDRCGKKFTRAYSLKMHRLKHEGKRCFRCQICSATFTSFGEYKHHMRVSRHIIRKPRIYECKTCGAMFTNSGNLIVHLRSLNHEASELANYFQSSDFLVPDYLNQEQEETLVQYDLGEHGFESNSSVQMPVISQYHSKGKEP
B2: E3 ubiquitin-protein ligase MYLIP (Homo sapiens), Q8WY64 (parent)
chain: MLCYVTRPDAVLMEVEVEAKANGEDCLNQVCRRLGIIEVDYFGLQFTGSKGESLWLNLRNRISQQMDGLAPYRLKLRVKFFVEPHLILQEQTRHIFFLHIKEALLAGHLLCSPEQAVELSALLAQTKFGDYNQNTAKYNYEELCAKELSSATLNSIVAKHKELEGTSQASAEYQVLQIVSAMENYGIEWHSVRDSEGQKLLIGVGPEGISICKDDFSPINRIAYPVVQMATQSGKNVYLTVTKESGNSIVLLFKMISTRAASGLYRAITETHAFYRCDTVTSAVMMQYSRDLKGHLASLFLNENINLGKKYVFDIKRTSKEVYDHARRALYNAGVVDLVSRNNQSPSHSPLKSSESSMNCSSCEGLSCQQTRVLQEKLRKLKEAMLCMVCCEEEINSTFCPCGHTVCCESCAAQLQSCPVCRSRVEHVQHVYLPTHTSLLNLTVI
partner: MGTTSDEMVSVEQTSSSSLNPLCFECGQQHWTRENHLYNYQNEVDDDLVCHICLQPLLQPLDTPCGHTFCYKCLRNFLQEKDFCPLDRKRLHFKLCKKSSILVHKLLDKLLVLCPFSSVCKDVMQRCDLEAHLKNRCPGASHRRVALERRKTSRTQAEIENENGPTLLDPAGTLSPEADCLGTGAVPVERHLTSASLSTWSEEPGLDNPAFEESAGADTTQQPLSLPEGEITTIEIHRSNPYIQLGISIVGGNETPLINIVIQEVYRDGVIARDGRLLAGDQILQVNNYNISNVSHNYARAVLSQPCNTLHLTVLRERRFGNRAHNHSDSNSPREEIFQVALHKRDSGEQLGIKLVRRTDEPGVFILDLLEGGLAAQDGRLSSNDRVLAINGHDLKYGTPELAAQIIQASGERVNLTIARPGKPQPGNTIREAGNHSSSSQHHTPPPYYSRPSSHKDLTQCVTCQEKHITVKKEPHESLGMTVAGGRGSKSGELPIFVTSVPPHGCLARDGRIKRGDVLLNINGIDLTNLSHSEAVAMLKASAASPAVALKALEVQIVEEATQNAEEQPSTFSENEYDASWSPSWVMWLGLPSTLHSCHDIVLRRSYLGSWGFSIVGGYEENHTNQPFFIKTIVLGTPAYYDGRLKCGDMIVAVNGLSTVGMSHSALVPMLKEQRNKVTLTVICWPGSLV
B3: Cyclin-D1-binding protein 1 (Homo sapiens), O95273 (parent)
chain: MASATAPAAAVPTLASPLEQLRHLAEELRLLLPRVRVGEAQETTEEFNREMFWRRLNEAAVTVSREATTLTIVFSQLPLPSPQETQKFCEQVHAAIKAFIAVYYLLPKDQGITLRKLVRGATLDIVDGMAQLMEVLSVTPTQSPENNDLISYNSVWVACQQMPQIPRDNKAAALLMLTKNVDFVKDAHEEMEQAVEECDPYSGLLNDTEENNSDNHNHEDDVLGFPSNQDLYWSEDDQELIIPCLALVRASKACLKKIRMLVAENGKKDQVAQLDDIVDISDEISPSVDDLALSIYPPMCHLTVRINSAKLVSVLKKALEITKASHVTPQPEDSWIPLLINAIDHCMNRIKELTQSELEL
partner: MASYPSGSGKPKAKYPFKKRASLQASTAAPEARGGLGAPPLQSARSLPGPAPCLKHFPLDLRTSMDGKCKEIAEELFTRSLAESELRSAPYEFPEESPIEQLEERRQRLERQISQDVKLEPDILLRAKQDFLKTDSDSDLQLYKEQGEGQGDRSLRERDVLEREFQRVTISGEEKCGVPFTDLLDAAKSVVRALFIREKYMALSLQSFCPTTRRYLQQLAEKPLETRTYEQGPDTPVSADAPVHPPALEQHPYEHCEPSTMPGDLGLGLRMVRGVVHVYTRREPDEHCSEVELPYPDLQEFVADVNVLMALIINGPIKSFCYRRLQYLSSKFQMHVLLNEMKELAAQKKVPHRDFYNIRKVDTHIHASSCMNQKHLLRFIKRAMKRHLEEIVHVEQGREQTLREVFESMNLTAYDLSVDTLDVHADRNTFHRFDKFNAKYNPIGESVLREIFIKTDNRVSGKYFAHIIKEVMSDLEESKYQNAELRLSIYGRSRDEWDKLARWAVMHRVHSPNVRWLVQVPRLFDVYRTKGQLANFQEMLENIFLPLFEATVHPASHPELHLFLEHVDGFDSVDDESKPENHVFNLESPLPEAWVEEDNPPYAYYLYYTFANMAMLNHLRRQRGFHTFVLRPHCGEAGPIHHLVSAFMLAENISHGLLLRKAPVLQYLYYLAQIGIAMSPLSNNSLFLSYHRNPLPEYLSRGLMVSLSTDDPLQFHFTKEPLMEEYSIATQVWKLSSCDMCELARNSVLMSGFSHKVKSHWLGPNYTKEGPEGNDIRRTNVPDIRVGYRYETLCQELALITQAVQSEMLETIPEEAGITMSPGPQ

Variants of: B1
Settings: with zbt44_human ZBTB44, Q8NCP5

effect of a mutation on the interaction	Variant
with no effect	MTIGRMENVEVFTAEGKGRGLKATKEFWAADIIFAERAYSAVVFDSLVNFVCHTCFKRQEKLHRCGQCKFAHYCDRTCQKDAWLNHKNECSAIKRYGKVPNENIRLAARIMWRVEREGTGLTEGCLVSVDDLQNHVEHFGEEEQKDLRVDVDTFLQYWPPQSQQFSMQYISHIFGVINCNGFTLSDQRGLQAVGVGIFPNLGLVNHDCWPNCTVIFNNGNHEAVKSMFHTQMRIELRALGKISEGEELTVSYIDFLNVSEERKRQLKKQYYFDCTCEHCQKKLKDDLFLGVKDNPKPSQEVVKEMIQFSKDTLEKIDKARSEGLYHEVVKLCQECLEKQEPVFADTNIYMLRMLSIVSEVLSYLQAFEEASFYARRMVDGYMKLYHPNNAQLGMAVMRAGLTNWHAGNIEVGHGMICKAYAILLVTHGPSHPITKDLEAMRVQTEMELRMFRQNEFMYYKMREAALNNQPMQVMAEPSNEPSPALFHKKQ [R333Q]
with no effect	MTIGRMENVEVFTAEGKGRGLKATKEFWAADIIFAERAYSAVVFDSLVNFVCHTCFKRQEKLHRCGQCKFAHYCDRTCQKDAWLNHKNECSAIKRYGKVPNENIRLAARIMWRVEREGTGLTEGCLVSVDDLQNHVEHFGEEEQKDLRVDVDTFLQYWPPQSQQFSMQYISHIFGVINCNGFTLSDQRGLQAVGVGIFPNLGLVNHDCWPNCTVIFNNGNHEAVKSMFHTQMRIELRALGKISEGEELTVSYIDFLNVSEERKRQLKKQYYFDCTCEHCQKKLKDDLFLGVKDNPKPSQEVVKEMIQFSKDTLEKIDKARSEGLYHEVVKLCRECLEKQEPVFADTNIYMLRMLSIVSEVLSYLQAFEEASFYARRMVDGYMKLYHPNNAQLGMAVMRAGLTNWHAGNIEVGHGMICKAYAILLVTLGPSHPITKDLEAMRVQTEMELRMFRQNEFMYYKMREAALNNQPMQVMAEPSNEPSPALFHKKQ [H427L]

Variants of: B2
Settings: with lnx2_human LNX2, Q8N448

effect of a mutation on the interaction	Variant
with no effect	MLCYVTRPDAVLMEVEVEAKANGEDCLNQVCRRLGIIEVDYFGLQFTGSKGESLWLNLRNRISQQMDGLAPYRLKLRVKFFVEPHLILQEQTRHIFFLHIKEALLAGHLLCSPEQAVELSALLAQTKFGDYNQNTAKYNYEELCAKELSSATLNSIVAKHKELEGTSQASAEYQVLQIVSAMENYGIEWHSVRDSEGQKLLIGVGPEGISICKDDFSPINRIAYPVVQMATQSGKNVYLTVTKESGNSIVLLFKMISTRAASGLYRAITETHAFYRCDTVTSAVMMQYSRDLKGHLASLFLNENINLGKKYVFDIKRTSKEVYDHARRALYNAGVVDLVSRSNQSPSHSPLKSSESSMNCSSCEGLSCQQTRVLQEKLRKLKEAMLCMVCCEEEINSTFCPCGHTVCCESCAAQLQSCPVCRSRVEHVQHVYLPTHTSLLNLTVI [N342S]

Variants of: B3
Settings: with ampd2_human AMPD2, Q01433

effect of a mutation on the interaction	Variant
disrupting interaction strength	MASATAPAAAVPTLASPLEQLRHLAEELRLLLPRVRVGEAQETTEEFNREMFWRRLNEAAVTVSREATTLTIVFSQLPLPSPQETQKFCEQVHAAIKAFIAVYYLLPKDQGITLRKLVRGATLDIVDGMAQLMEVLSVTPTQSPENNDLISYNSVWVACQQMPQIPRDNKAAALLMLTKNVDFVKDAHEEMEQAVEECDPYSGLLNDTEENNSDNHNHEDDVLGFPSNQDLYWSEDDQELIIPCLALVRASKACLKKIRMLVAENGKKDQVAQLDDTVDISDEISPSVDDLALSIYPPMCHLTVRINSAKLVSVLKKALEITKASHVTPQPEDSWIPLLINAIDHCMNRIKELTQSELEL [I277T]
